Assay: label from the status in PepcDB records
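Note: failed if final PepcDB status was selected cloned or expressed and not failed if soluble or beyond.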

Row | Sequence | protein production
1 | MARPNFRYTHYDLKELRAGTTLEISLSSVNNVRLMTGANFQRFTELLDFKYLGGVAKKSPIRIAVPETMHWHLIIDAEGHSGLAESSVKMLPAQPQATLTRKAS | not failed
2 | MGHHHHHHSHMNSTECTLILTEGDSAKTLAVSGLGVVGRDKYGVFPLRGKILNVREASHKQIMENAEINNIIKIVGLQYKKNYEDEDSLKTLRYGKIMIMTDQDQDGSHIKGLLINFIHHNWPSLLRHRFLEEFITPIVKVSKNKQEMAFYSLPEFEEWKSSTPNHKKWKVKYYKGLGTSTSKEAKEYFADMKRHRIQFKYSGPEDDAAISLAFSKKQIDDRKEWLTNFMEDR | failed
3 | MILATYFDGRTSRAQPVRLAVEQGEAVLFDPEGVPVRRAPLSALRVSERVKHAPRLVTFEDGAFCEIADPAEQQALNALLHRTGYREGAVVRAQNSWRLALGALALTLAALVLGYRYGLPWGAKVLAGMVPQRVEAQLGHASLAAFDQHWLEPSKLPQAQQARIRARFAALRAPDATHAYTIAFRDAGKLGANAFALPGGDIIVTDALVRLVGEGDGLMGVLAHEAGHVEYRHGLRQLIQSSAIGATAALLFGDISTILAGVPATMLTLRYSRDYERDADRYASRMLQSNGLSVAAFADVLQALEDSHGGARGTGSGAGRKEEDRDDASGFFSSHPLTRERIETLRRFDHTHGGSDAD | failed
4 | MQRVLGFSTCSYSWIAQSFNRFHPRCIQPTCFRSKVTKLCPKRPRSSLLSDNNATKYPQKAIYLTAQVKLPQISEVQNATFDQCLPLARNICFRLQEEPQDENAYQVLKELLSREEGARAFFVEYLSDYELSLPDKKPPFKLEKLLKDCDEYVPNLLARNLAMSVAKEVDLANDSKNAENEEVDDTGSGSWSDSVEESSGGPTMVKERTALLIDSIASSEIARELVALWFSIRSRKGKYVHFLERQKFRKDQLDVIQRTLEVFIGA | failed
5 | MSVYKLTDLRDNSTNWKINVKILSIWNHPPNSHGEIMTMILHDDKNNRVDATIPQGNYHNPFRPFLKPGTWIHISDFRVIVPQSRVRYSSFCFHIKFIWETSVYPLPELVKRDFFDFIFPIDLKYPCLEDWDYVTDAMSEVTNISAIKKFPFVCRQGETDYESRYVSFELLDNMGEKMKCYAVGRCCELFVINFSKCISSASYNYQPIVAIVRFWRIAEIEGENVLKSEFGCSRIYLNPTNFPEIDIQSYIRGFEDYDELPENPRMEVIEEN | failed
6 | MNRSRDKVRCALNHQNAGSIPVDFGSTAVTGIHCRIVEALRNYYGLAPRPVKIVDAFQMLGEIDAELAEKIGVDCIGIGGPKDIFDLDTTRMHEQTTPWGQRVLVPEAMDLTPDMRGDVYVYAGGDQNYPPSAVMPKGCYFINAIERQQPIEEDRLDPEDNVEEFGLLTENDLAYYCAEADKAYQTGRAVVASFGGTALGDVAFVPGMGLKQPKGIRSVVEWYMSTAMRQDYLHQVFEKEIDIAIANYEKLWAALGDKIDVVLTCGTDFGSQESQFCSIDTFRELWLPHYRRMNDWIHQHTTWKIFKHSCGAIIPILPGLIEAGFDIINPVQINAKDMDSRRLKEEFGSQLTFWGGGVDTQKILPFGTPDEIRRHVMGQCEILGRDGGFVFNAVHNVQANVPVDNVVAMFDALKDISLEHHHHHH | failed
7 | MRRSRSSAAAKLRGQKRSGASGASAAPAASAAAALAPSATRTRRSASQAGSKSQAVEKPPSEKPRLRRSSPRAQEEGPGEPPPPELALLPPPPPPPPTPATPTSSASNLDLGEQRERWETFQKRQKLTSEGAAKLLLDTFEYQGLVKHTGGCHCGAVRFEVWASADLHIFDCNCSICKKKQNRHFIVPASRFKLLKGAEHITTYTFNTHKAQHTFCKRCGVQSFYTPRSNPGGFGIAPHCLDEGTVRSMVTEEFNGSDWEKAMKEHKTIKNMSKE | failed
8 | MPTDDIVQLLKGQEEAWNRGDLDAYMQGYWQNEQLMLISNGKFRNGWDETLAAYKKNYPDKESLGELKFTIKEIKMLSNYAAMVVGRWDLKRLKDTPTGVFTLLVEKIDDRWVITMDHSSD | not failed
9 | MEPTGLMVAAPTASLPEAIGGERNWDYRFTWIRDTAYVIEALSSIGYKYEATEFLYDMMDMITRDNRIRTIYSIDDSNDLEERIIDYEGYRGSRPVRIGNKAVDQLQIDQYGSIVRAIHSMAKAGGIVNSYLWDFVEQVMAKIEYLWKYPDSSIWEFRTEPKQYVYSKVMSWAAFDSAISMAKDLGLSAPIKQWKSIQDEIKKEVLEKGFDTDTNSFVQYYGSKNIDAALLRLPILGFIPANDEKFLGTLSRIEKELMVDGYLFKRYREDDGLKGDEGSFLMLTFWYIEDLILMKRLKKAREVLESVLEKANHLGLYSEEIDEKSGDFLGNFPQALSHLGVIRVAPKLEEALLLEHHHHHH | failed
10 | MNTTQGEYTTTAKWLHWLMATLIALAWLIGFYVSDLPKGPEKAAIMAWHKGLGTAVLALITVRLAWRLLHPPPRLPDTLSPGLQRAAHSAHWTLYGLMIAQPLSGWAVSSANGYPVKLFGLITLPALVEKNEVLAQTFVEIHEFLAWGLALLVVGHVVMAIKHHHVDRNGILHRMLPGRRPTSD | failed
11 | MAAPLRIQSDWAQALRKDEGEAWLSCHPPGKPSLYGSLTCQGIGLDGIPEVTASEGFTVNEINKKSIHISCPKENASSKFLAPYTTFSRIHTKSITCLDISSRGGLGVSSSTDGTMKIWQASNGELRRVLEGHVFDVNCCRFFPSGLVVLSGGMDAQLKIWSAEDASCVVTFKGHKGGILDTAIVDRGRNVVSASRDGTARLWDCGRSGCLGVLADCGSSINGVAVGAADNSINLGSPEQMPSEREVGTEAKMLLLAREDKKLQCLGLQSRQLVFLFIGSDAFNCCTFLSGFLLLAGTQDGNIYQLDVRSPRAPVQVIHRSGAPVLSLLSVRDGFIASQGDGSCFIVQQDLDYVTELTGADCDPVYKVATWEKQIYTCCRDGLVRRYQLSDL | failed
12 | LAAWHLSSADYIADTLRLQGMTARGQVLDFGGGIGTHALSAAALPQVDHVWFVDLNPHNQAFVEQRAAALGLSDKLSVHRDLESTGEVRFDTVVCLDVLEHLPDPSAQLQAFHQRMASDATALLNWYFFKGHDGEYPFHFDDPQ | failed
13 | MDRIQEMTLFAALAGQTSFTGVARHVGLSTATVTRAVASLESRLGILLVVRTTRNMRLTKAGQRFAEDCRRLLADLSEAENAAAGVHALPAGTLTVTAPQMFGALHVTPVLTRFLSEYPAVDIRAILVDRVVSMLDEGVDVAVRIGALRDSSLTAIRVGSVRRMVCASPVYLTQHGTPRHPDDLQQHATISTSAPERPPHWAFRVDDQDYSVNVASRLSLTSFQASINAALQHWGLTQVPHYQIREHLHNGRLVCVLEDFEIAPEPVHVVYSEGRRGSSRVRSFVDFCVSALREDLQFEAAG | failed
14 | MIKSSLPPILTSQIGPDSIELRLLVAADLEYFNGHFPEQAVLPGVTQLDWAVRLGCEHFGYSAAVANLEVLKFQQLILPGQEVTLVISHNATKEKLTFAYSDGDHRYASGRISFASKQDDGAAQ | failed
15 | MTIKQTDNINDDDLVYSNATDLPVGVKKSPKMSPTARVGLLVFGVIAAVGWGAIAFSRGETINSVWLVLAAVGSYIIAFSFYARLIEYKVVKPKDQRATPAEYVNDGKDYVPTDRRVLFGHHFAAIAGAGPLVGPVMAAQMGYLPGTLWIILGVIFAGAVQDYLVLWVSTRRRGRSLGQMVRDEMGTVGGAAGILATISIMIIIIAVLALIVVNALADSPWGVFSITMTIPIALFMGVYLRYLRPGRVTEVSIIGVALLLLAIVAGGWVADTSWGVEWFTWSKTTLALALIGYGIMAAILPVWLLLAPRDYLSTFMKIGVIGLLAVGILFARPEVQMPSVTSFALEGNGPVFSGSLFPFLFITIACGALSGFHALISSGTTPKLVEKESQMRMLGYGGMLMESFVAMMALITAVILDRHLYFSMNAPLALTGGDPATAAEWVNSIGLTGADITPEQLSEAAESVGESTVISRTGGAPTLAFGMSEILSGFIGGAGMKAFWYHFAIMFEALFILTTVDAGTRVARFMMTDTLGNVPGLRRFKDPSWTVGNWISTVFVCALWGAILLMGVTDPLGGINVLFPLFGIANQLLAAIALALVLVVVVKKGLYKWAWIPAVPLAWDLIVTMTASWQKIFHSDPAIGYWAQNANFRDAKSQGLTEFGAAKSPEAIDAVIRNTMIQGILSILFAVLVLVVVGAAIAVCIKSIRARAAGTPLETTEEPDTESEFFAPTGFLASSRDKEVQAMWDERYPGGAPVSSGGH | not failed

Reference: a protein production outcome set (Wang et al. 2014)
